Key:
EIN2C^479–1294 = test: In planta FLIM‐FRET, EIN2C^479–1294‐CER donor, IMPα‐YFP acceptors; assay type: cell-based, Arabidopsis thaliana; conditions: N. benthamiana epidermal leaf cells; for average fluorescence lifetime of the EIN2C^479‐1294‐CER donor: co‐expression, vs donor only, Kruskal‐Wallis and Dunn's test, 18–20 measurements
From the text: To further investigate the interaction between members of the IMPα superfamily and EIN2 in planta, we used in vivo fluorescence lifetime microscopy and Förster's resonance energy transfer (FLIM‐FRET). Accordingly, the C‐terminal part of EIN2 (EIN2C^479–1294) was fused to the fluorescent protein Cerulean (CER), serving as a donor, and the IMPα isoforms (IMPα1‐7) were fused to YELLOW FL[…] (YFP), serving as acceptors.
(§1) A modified version of a previously described procedure was used for the transient transformation of N. benthamiana. An overnight culture of agrobacteria was inoculated in DYT and incubated at 28°C one day before infiltration. Bacteria were then centrifuged at 4000 g and resuspended in infiltration medium (5% (w/v) Saccharose; 0.01% (w/v) MgSO4; 0.01% (w/v) Glucose; Acetosyringone 450 μM) to an OD600 of 0.4–0.8. Resuspended bacteria were kept on ice for 1–2 h prior to infiltration. For co‐infiltration, bacteria solutions were mixed in equal quantities, and Agrobacterium strain GV3101:p19 expressing the p19 silencing inhibitor was added to each mix. Infiltration of the bacteria solution was performed with a 1 mL syringe onto the abaxial side of 3‐ to 4‐week‐old plants. Plants were kept under continuous light before microscopy analysis. For ß‐estradiol inducible constructs, plants were sprayed on the abaxial side of infiltrated leaves with an estradiol solution (ß‐estradiol 20 μM; Tween‐20 0.1% (w/v)) prior to imaging.
Fluorescence lifetime imaging was performed using a protocol described previously. Fluorescence lifetime was measured at a Zeiss LSM 780 confocal microscope (40× water immersion objective, Zeiss C‐PlanApo, NA 1.2). For TCSPC, a PicoQuant Hydra Harp 400 (PicoQuant, Berlin, Germany) was used. Photon counting was performed with a picosecond resolution. Cerulean was excited with a 440 nm ([…], 32 MHz, PicoQuant, Berlin, Germany) pulsed polarized laser. Laser power at the objective lens was adjusted to ~2.2 μW in N. benthamiana experiments. […] Photons were detected in both donor and acceptor channels simultaneously with Tau‐SPADs (PicoQuant, Berlin, Germany). […] Internal response functions for each laser were determined by measuring the fluorescence decay of quenched Atto425 in saturated KI, using the same hardware settings as for the FRET pair of interest. Fluorescence lifetime images were acquired in the cytosol, ER, or nucleus in donor‐only samples and samples with IMPα1‐4 and IMPα7. […]
The fluorescence decays were fitted using a previously reported method with minor modifications.
The fluorescence decays of selected ROIs in the FLIM image were analyzed with the SymPhoTime FLIM analysis software (SymPhoTime 64, version 2.4; PicoQuant, Berlin, Germany). […]

[1] = system: N. benthamiana epidermal leaf cells; test: Confocal fluorescence microscopy, subcellular localization; assay type: cell-based; conditions: Cerulean fusion, transiently transformed N. benthamiana epidermal leaf cells
Procedure: as §1
For fluorescence imaging, a Zeiss LSM 780 confocal microscope (40× water immersion objective, Zeiss C‐PlanApo, NA 1.2) was used. YFP was excited at 514 nm and Cerulean at 458 nm. Signal recording of each fluorophore was done within its maximum emission peak while avoiding auto‐fluorescence above 650 nm. […]

ΔIBB_IMPα1 = ΔIBB_IMPα1 (Arabidopsis thaliana, UniProt Q96321); assay type: binding
From the text: Next, we used biolayer interferometry (BLI) with an Octet K2 instrument (Fortè Bio, Dallas, USA) to substantiate and further delineate the binding interactions between the IMPα superfamily and the EIN2‐NLS motif. BLI measures slight changes in reflected light at a sensor surface upon the formation of molecular complexes. Specifically, it monitors interference patterns of white light, which are reflected from two different surfaces: an internal reference layer and a layer of biomolecules immobilized on a biosensor tip.
In these binding assays, IMPα1 lacking the IBB domain (ΔIBB_IMPα1) and IMPα4 were selected as representatives of the IMPα superfamily. Prior to their interaction studies with different EIN2 CEND‐NLS probes, both importins were biotinylated with the Biotin‐PEG4‐NHS ester Protein Labeling Kit from Jena Bioscience (Jena, Germany) and immobilized onto streptavidin‐coated biosensor tips (Fig. 5).
Curve fitting of the BLI sensorgrams was tested with different binding models. […] This model assumes analyte binding at two independent ligand sites at the IMPα immobilized on the biosensor surface. Furthermore, each ligand site binds the analyte independently and with a different rate constant. […]

Sequence of ΔIBB_IMPα1 (Q96321 whole entry, stated change not applied): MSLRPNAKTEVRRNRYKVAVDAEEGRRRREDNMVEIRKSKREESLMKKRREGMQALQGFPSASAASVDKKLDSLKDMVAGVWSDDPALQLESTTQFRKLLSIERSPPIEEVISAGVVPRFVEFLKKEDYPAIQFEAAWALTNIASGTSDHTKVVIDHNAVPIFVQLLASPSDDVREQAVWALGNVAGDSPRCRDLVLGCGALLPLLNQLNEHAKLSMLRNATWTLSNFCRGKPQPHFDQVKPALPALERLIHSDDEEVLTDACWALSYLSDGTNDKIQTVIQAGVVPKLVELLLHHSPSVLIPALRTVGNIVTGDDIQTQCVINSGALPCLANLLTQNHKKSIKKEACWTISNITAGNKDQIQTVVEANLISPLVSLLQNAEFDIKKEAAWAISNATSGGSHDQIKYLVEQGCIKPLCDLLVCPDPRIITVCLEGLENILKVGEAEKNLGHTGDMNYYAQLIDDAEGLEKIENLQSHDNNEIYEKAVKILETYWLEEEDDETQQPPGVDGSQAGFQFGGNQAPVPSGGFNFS

B1: IMPα7‐YFP: A. thaliana IMPα7 fused to YFP, FRET acceptor (protein)
chain: MKGGETMSVRRSGYKAVVDGVGGRRRREDDMVEIRKAKREESLLKKRREALPHSPSADSLDQKLISCIWSDERDLLIEATTQIRTLLCGEMFNVRVEEVIQAGLVPRFVEFLTWDDSPQLQFEAAWALTNIASGTSENTEVVIDHGAVAILVRLLNSPYDVVREQVVWALGNISGDSPRCRDIVLGHAALPSLLLQLNHGAKLSMLVNAAWTLSNLCRGKPQPPFDQVSAALPALAQLIRLDDKELLAYTCWALVYLSDGSNEKIQAVIEANVCARLIGLSIHRSPSVITPALRTIGNIVTGNDSQTQHIIDLQALPCLVNLLRGSYNKTIRKEACWTVSNITAGCQSQIQAVFDADICPALVNLLQNSEGDVKKEAAWAICNAIAGGSYKQIMFLVKQECIKPLCDLLTCSDTQLVMVCLEALKKILKVGEVFSSRHAEGIYQCPQTNVNPHAQLIEEAEGLEKIEGLQSHENNDIYETAVKILETYWMEEEEEEDQEQQDMIYFPVDNFANMPTSSGTLSEMHCGP
modifications: left off: YFP, end not stated, kept
notes: A. thaliana IMPα7 fused to YFP, FRET acceptor
average fluorescence lifetime of the EIN2C^479‐1294‐CER donor (EIN2C^479–1294): significant reduction

B2: EIN2C^479–1294: C‐terminal part of EIN2 fused to Cerulean (CER), FRET donor (protein)
chain: NALSYPSVQEEEIERTETRRNEDESIVRLESRVKDQLDTTSVTSSVYDLPENILMTDQEIRSSPPEERELDVKYSTSQVSSLKEDSDVKEQSVLQSTVVNEVSDKDLIVETKMAKIEPMSPVEKIVSMENNSKFIEKDVEGVSWETEEATKAAPTSNFTVGSDGPPSFRSLSGEGGSGTGSLSRLQGLGRAARRHLSAILDEFWGHLYDFHGQLVAEARAKKLDQLFGTDQKSASSMKADSFGKDISSGYCMSPTAKGMDSQMTSSLYDSLKQQRTPGSIDSLYGLQRGSSPSPLVNRMQMLGAYGNTTNNNNAYELSERRYSSLRAPSSSEGWEHQQPATVHGYQMKSYVDNLAKERLEALQSRGEIPTSRSMALGTLSYTQQLALALKQKSQNGLTPGPAPGFENFAGSRSISRQSERSYYGVPSSGNTDTVGAAVANEKKYSSMPDISGLSMSARNMHLPNNKSGYWDPSSGGGGYGASYGRLSNESSLYSNLGSRVGVPSTYDDISQSRGGYRDAYSLPQSATTGTGSLWSRQPFEQFGVAERNGAVGEELRNRSNPINIDNNASSNVDAEAKLLQSFRHCILKLIKLEGSEWLFGQSDGVDEELIDRVAAREKFIYEAEAREINQVGHMGEPLISSVPNCGDGCVWRADLIVSFGVWCIHRVLDLSLMESRPELWGKYTYVLNRLQGVIDPAFSKLRTPMTPCFCLQIPASHQRASPTSANGMLPPAAKPAKGKCTTAVTLLDLIKDVEMAISCRKGRTGTAAGDVAFPKGKENLASVLKRYKRRLSNKPVGMNQDGPGSRKNVTAYGSLG
modifications: left off: Cerulean, end not stated, kept
notes: C‐terminal part of EIN2 fused to Cerulean (CER), FRET donor
subcellular localization [1]: localized in the nucleus, ER, and cytoplasm

B3: IMPα5: A. thaliana IMPα5 fused to YFP, FRET acceptor (protein)
chain: MSLRPSTKTEIRRIRYKVSVDAEEGRRRREDFLVEIRKSKRNENLMKKRRVKVLPPDYKLISNDPFESLLEIANMITGVFSDDPSLQLEYTTRFRVVLSFDRSPPTDNVIKSGVVPRFVEFLKKDDNPKLQFEAAWALTNIASGASEHTKVVIDHGVVPLFVQLLASPDDDVREQAIWGLGNVAGDSIQCRDFVLNSGAFIPLLHQLNNHATLSILRNATWTLSNFFRGKPSPPFDLVKHVLPVLKRLVYSDDEQVLIDACWALSNLSDASNENIQSVIEAGVVPRLVELLQHASPVVLVPALRCIGNIVSGNSQQTHCVINCGVLPVLADLLTQNHMRGIRREACWTISNITAGLEEQIQSVIDANLIPSLVNLAQHAEFDIKKEAIWAISNASVGGSPNQIKYLVEQNCIKALCDILVCPDLRIILVSLGGLEMILIAGEVDKNLRDVNCYSQMIEDAEGLEKIENLQHHGNNEIYEKAVKILQTYGLVEEDGRLVEEEDEGGDGCSHPEFQFDFSR
modifications: left off: His6, C-terminal, state not stated
notes: A. thaliana IMPα5 fused to YFP, FRET acceptor
average fluorescence lifetime of the EIN2C^479‐1294‐CER donor (EIN2C^479–1294): only slightly, but not significantly reduced | FRET efficiency (EIN2C^479–1294; mean, EIN2C^479–1294‐CER donor / IMPα‐YFP acceptor): 1%

B4: GB1‐AtEIN2C^1215–1281: CEND construct containing a GB1‐tag to enhance solubility, produced recombinantly in E. coli (protein)
chain: {GB1 tag}-KGKCTTAVTLLDLIKDVEMAISCRKGRTGTAAGDVAFPKGKENLASVLKRYKRRLSNKPVGMNQDGP
modifications: not fully specified
notes: CEND construct containing a GB1‐tag to enhance solubility, produced recombinantly in E. coli
Hill coefficient (ΔIBB_IMPα1; BLI dose response, ΔIBB_IMPα1): 0.94 ± 0.06 | Kd (ΔIBB_IMPα1; BLI, ΔIBB_IMPα1 biotinylated on streptavidin biosensor (15 μM in 100 mM Tris pH 7.0, 100 mM KCl, 0.01% Tween 20), room temperature, association 300 s, dissociation 300 s, 1:2 heterogeneous ligand model, n = 3, read-out: K d + SD): 8.8 ± 1.1 µM

B5: IMPα6‐YFP: A. thaliana IMPα6 fused to YFP, FRET acceptor (protein)
chain: MSYKPSAKTEVRRNRYKVSVDADEGRRRREDNMVEIRKNKREENLQKKRREGFNPSMASQPGQDFSSSLPTETRLENIQQMIAGVMSEDRDLQLEATASFRRLLSIERNPPINEVVQSGVVPHIVQFLSRDDFTQLQFEAAWALTNIASGTSENTRVIIDSGAVPLFVKLLSSASEEVREQAVWALGNVAGDSPKCRDHVLSCEAMMSLLAQFHEHSKLSMLRNATWTLSNFCRGKPQPAFEQTKAALPALERLLHSTDEEVLTDASWALSYLSDGTNEKIQTVIDAGVIPRLVQLLAHPSPSVLIPALRTIGNIVTGDDIQTQAVISSQALPGLLNLLKNTYKKSIKKEACWTISNITAGNTSQIQEVFQAGIIRPLINLLEIGEFEIKKEAVWAISNATSGGNHDQIKFLVSQGCIRPLCDLLPCPDPRVVTVTLEGLENILKVGEAEKNLGNTGNDNLYAQMIEDADGLDKIENLQSHDNNEIYEKAVKILESYWAADDEEEDIGGVDAPENVQSSGFQFGNQSGNAPTGGFNFG
modifications: left off: YFP, end not stated, kept
notes: A. thaliana IMPα6 fused to YFP, FRET acceptor
average fluorescence lifetime of the EIN2C^479‐1294‐CER donor (EIN2C^479–1294): significant reduction

— paper PMC12871931, “The importin‐alpha superfamily engages in ethylene signaling by shuttling [sequence] INSENSITIVE 2 from the endoplasmic reticulum to the nucleus” (The Febs Journal, 2025)
